# Experimental data taken from article PMC4113718.
# Target: CXC chemokine receptor (CXCR) 4 on THP-1 cells (human (endogenous in THP-1)) (UniProt P61073)
# Sequence (P61073 whole entry): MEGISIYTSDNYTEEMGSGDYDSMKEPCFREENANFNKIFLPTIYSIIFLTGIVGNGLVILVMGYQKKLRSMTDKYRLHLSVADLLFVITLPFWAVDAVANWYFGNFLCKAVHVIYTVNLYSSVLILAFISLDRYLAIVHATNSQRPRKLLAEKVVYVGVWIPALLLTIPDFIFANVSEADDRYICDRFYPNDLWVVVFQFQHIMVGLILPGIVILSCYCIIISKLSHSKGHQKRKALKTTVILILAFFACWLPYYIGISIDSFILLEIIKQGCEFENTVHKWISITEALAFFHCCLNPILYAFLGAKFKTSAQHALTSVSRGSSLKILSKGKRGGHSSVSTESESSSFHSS
Substance,"LogIC50 (pM), reduction of cAMP levels in forskolin-stimulated THP-1 cells","bottom plateau (%), reduction of cAMP levels in forskolin-stimulated THP-1 cells [%]"
Ub(1–74)NN (from UniProt P0CG47 1-76) (ligand),2.3 log(pM),54.1
Ub(1–74)RR (from UniProt P0CG47 1-76) (ligand),,42.8
Ub(1–74)VV (from UniProt P0CG47 1-76) (ligand),,46.7
